The results in this text go back to US20080199424A1.

The assay deals with MART-126-35/HLA-A2.1 tetramer (human). Nature of the assay: equilibrium tetramer staining at 0.1-25 nM, flow cytometry, Scatchard plot (KD=1/slope). (In general: A flow cytometer gives signals particle by particle.)

As a reminder, the Kd is the concentration at which binding is half-saturated. Read a low Kd as higher affinity. With “MART-1 TCR native PBMC (T cells obtained by leukapheresis from the MART-1 TCR donor patient)”, the Kd was in the range of 4 to 6 nM.
